Legend:
[1] = DSF thermal stability of BA8 Fab and mutants; format: physicochemical
Procedure: To assess the effect of sulfated peptide binding on the thermal stability of BA8, we performed differential scanning fluorimetry (DSF) measurements (Fig. 2C) ([25]). The melting temperature (Tm) of BA8 forming a complex with the sulfated peptide was 75.6 °C, whereas the pre-binding Tm was 70.8 °C.
We evaluated the stabilizing effect of peptide binding on each mutant using DSF (Fig. S6).
The DSF thermal stability measurements were performed using a CFX Real-Time PCR System (Bio-Rad). First, 1 μl of 100 × SYPRO Orange stain was diluted with 19 μl of 8.3 μM unbound-BA8 Fab or the solution remaining in the cell after ITC measurement. Next, fluorescence was scanned every minute to obtain melting curves of the solutions as they were heated at 1.0 °C/min. The change in the scanned relative fluorescence unit per unit time was recorded, and the temperature at its peak was considered to be the melting temperature (Tm) ([42]).

[2] = system: sulfated N-terminal peptide of CCR5; test: SPR kinetic interaction analysis of BA8 Fab (wild type and mutants) with the sulfated peptide; format: binding; conditions: SPR Biacore 8K, PBS 0.005% Tween 20, global fitting
Text: To quantitatively evaluate the intermolecular interaction between BA8 and the sulfated N-terminal peptide of CCR5, we prepared a Fab fragment of BA8 as a recombinant protein (Fig. S2, A and B) and conducted kinetic interaction analysis using SPR. The Fab was immobilized on a sensor chip using amine coupling, and the synthesized sulfated and non-sulfated N-terminal peptides of CCR5 were used as the analytes.
To further dissect how molecular recognition occurs, we evaluated the contribution of individual residues of BA8 to the recognition of the sulfated peptide. We analyzed the crystal structure using the PDB PISA server, and we conducted mutation analyses in which the residues predicted to form hydrogen bonds or located at the interface were mutated to alanine (Fig. 3B).
The bindings of the peptides to Fabs were analyzed using a Biacore 8K instrument (Cytiva). Each Fab was immobilized on the surface of a CM5 sensor chip (Cytiva) by the amine-coupling method according to the manufacturer’s instructions in the condition of pH 5.5. The immobilization level reached to about 3000 Response Unit (RU). PBS containing 0.005% Tween 20 was used as the running buffer. The kinetic data were obtained by injection of increasing concentrations of peptides into the sensor chip. The flow rate of the analyte were set to 30 μl/min. The data were analyzed using BIAevaluation software (Cytiva), and the binding affinity as well as kinetic parameters were calculated by a global fitting of the curves.

[3] = system: CCR5 on HEK293 cells transfected with CCR5 (C) or CCR5 + TPST1 (C1); test: Flow cytometry binding to C and C1 cells; format: cell-based; conditions: cells overexpressing only CCR5 or CCR5 and TPST1
Text: (§1) We prepared model cells with transient overexpression to examine whether BA8 can recognize sulfated full-length CCR5. As referred in the Introduction section, previous research has shown that protein tyrosine sulfotransferases (TPSTs) are responsible for tyrosine sulfation ([10], [11], [12]). Those two isoforms of TPST (TPST1 and TPST2) and CCR5 genes were transiently transfected in the following five combinations to HEK293 cells: Negative Control (NC); CCR5 (C); CCR5 + TPST1 (C1); CCR5 + TPST2 (C2); and CCR5 + TPST1 + TPST2 (C12). Each protein contained the following tag sequences at the C-terminus: CCR5 – FLAG, TPST1 – HA, and TPST2 – Myc. The overexpression of each protein was confirmed by western blotting using tag antibodies (Fig. 5, A and B).
We conducted flow cytometry using these cells to confirm that BA8 can recognize sulfated CCR5 expressed on the cell surface (Fig. 5D).
HEK293 cells stored in liquid nitrogen were initiated into the culture by thawing. After the third passage, at 70% confluency, they were transfected with pCAGGS expression vectors containing CCR5, TPST1, or TPST2 using Lipofectamine 3000 Transfection Reagent (ThermoFisher Scientific). To exclude artifacts caused by the transfection operation itself, empty vectors without the objective protein were transfected if the protein was not to be expressed. […]

[4] = system: CCR5 sulfated by TPST2 in cell lysates; test: Western blotting of transfected HEK293 cell lysates with BA8 as detection antibody; format: binding; conditions: 100 nM BA8 (full-length IgG) as detection antibody; lysates of NC, C, C1, C2, C12 cells
Text: as §1
We prepared recombinant BA8 as a full-length IgG form for subsequent cell-based assays (Fig. S2, C and D).
The cell lysate suspended in RIPA Buffer was placed on ice for 30 min, followed by centrifugation at 20,000 × g for 20 min. […] Protein bands were detected by incubating the membranes with anti-DDDDK-tag mAb-HRP-DirecT, anti-HA tag mAb-HRP-DirecT, anti-Myc tag mAb-HRP-DirecT (all from MBL Lifescience), or each IgG followed by incubation with horseradish peroxidase (HRP)-conjugated anti-rabbit IgG, HRP-linked antibody (Cell Signaling Technology) at room temperature for 30 min. […]

[5] = Fab immobilized on CM5 chip, sulfated peptide as analyte

B1: BA8: rabbit antibody clone from phage display that specifically recognizes the sulfated N-terminal peptide of CCR5 (antibody, V domains shown)
VH: QSLEESGGGLFKPTDTLTLTCTVSGFSLSSYSIRWVRQAPGNGLEWIGAIGSGGNAYYTSWAKSRSTITRNTNENTVTLKMTSLTVADTATYFCARGGINFGIWGPGTLVTVSS
VL: AAVLTQTPSPVSAAVGSTVTINCQSSQSVYSKNWLSWFQQKPGQPPKQLIYSASTLDSGVPSRFSGSGSGTQFTLTISGVQCDDAATYYCQGTYGDASAFGGGTEVVVK
For B1, the “melting temperature (Tm), unbound (pre-binding)” value ([1]; SYPRO Orange, 8.3 μM unbound Fab, heated at 1.0 °C/min) was 70.8 °C, the “melting temperature (Tm) of BA8 forming a complex with the sulfated peptide” value ([1]; SYPRO Orange, solution remaining in the cell after ITC measurement, 1.0 °C/min) was 75.6 °C and the “increase of Tm after forming a complex with the sulfated peptide versus BA8 alone” value ([1]; complex from the ITC measurement) was 4.8 °C. The kon ([2]; Fab immobilized on CM5 chip by amine coupling (~3000 RU), sulfated peptide as analyte (2 to 162 nM; 20 nM to 1620 nM for the weak mutants of Fig. 3), 30 μl/min) was 251000 mol/L/s, the Kd [2, 5] was 0.809 nM and the koff [2, 5] was 0.000203 s⁻¹. For the same molecule, the “binding to C and C1 cells in flow cytometry, in words” value [3] was “slight binding” and the “recognition of CCR5 in cell lysates by western blotting, in words” value [4] was “specifically recognized CCR5 in the lysates of cells C2 and C12”.
